Assay results: PMC9482650, “Quantitative fragmentomics allow affinity mapping of interactomes” (Nature Communications, 2022)

T1: APBA2_1, Q99767
T1 sequence (Q99767 563-664, limits assumed, looked up): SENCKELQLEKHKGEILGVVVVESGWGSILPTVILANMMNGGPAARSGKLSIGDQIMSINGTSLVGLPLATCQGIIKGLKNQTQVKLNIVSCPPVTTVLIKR

T2: DLG3_1, Q92796
T2 sequence (Q92796 125-227, limits assumed, looked up): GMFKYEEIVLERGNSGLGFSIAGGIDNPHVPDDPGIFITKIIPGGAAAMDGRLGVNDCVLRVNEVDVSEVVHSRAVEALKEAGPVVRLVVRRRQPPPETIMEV

T3: DLG3_2, Q92796
T3 sequence (Q92796 221-321, limits assumed, looked up): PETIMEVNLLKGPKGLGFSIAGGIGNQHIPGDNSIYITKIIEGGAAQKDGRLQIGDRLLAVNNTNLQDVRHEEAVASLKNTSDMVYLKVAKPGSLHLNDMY

T4: MPDZ_10, O75970
T4 sequence (O75970 1624-1722, limits assumed, looked up): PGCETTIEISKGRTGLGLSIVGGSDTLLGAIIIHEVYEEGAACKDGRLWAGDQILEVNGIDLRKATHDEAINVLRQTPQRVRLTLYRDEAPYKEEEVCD

T5: NHERF3_1, Q5T2W1
T5 sequence (Q5T2W1 4-100, limits assumed, looked up): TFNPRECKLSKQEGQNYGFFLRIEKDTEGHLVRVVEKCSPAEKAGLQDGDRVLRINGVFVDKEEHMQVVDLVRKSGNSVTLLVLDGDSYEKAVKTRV

T6: RHPN1, Q8TCX5
T6 sequence (Q8TCX5 508-602, limits assumed, looked up): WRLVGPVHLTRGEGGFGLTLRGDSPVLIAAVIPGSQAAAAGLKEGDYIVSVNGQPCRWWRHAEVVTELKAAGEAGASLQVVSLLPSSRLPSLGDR

T7: SHANK1, Q9Y566
T7 sequence (Q9Y566 658-767, limits assumed, looked up): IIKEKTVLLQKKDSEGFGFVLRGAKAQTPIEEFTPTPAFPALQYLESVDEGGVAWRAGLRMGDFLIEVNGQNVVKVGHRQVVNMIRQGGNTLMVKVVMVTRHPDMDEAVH

T8: SNTA1, Q13424
T8 sequence (Q13424 82-180, limits assumed, looked up): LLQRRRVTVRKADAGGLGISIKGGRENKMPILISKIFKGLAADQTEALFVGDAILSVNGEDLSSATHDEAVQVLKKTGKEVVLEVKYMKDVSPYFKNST

T9: SNTG1, Q9NSN8
T9 sequence (Q9NSN8 52-150, limits assumed, looked up): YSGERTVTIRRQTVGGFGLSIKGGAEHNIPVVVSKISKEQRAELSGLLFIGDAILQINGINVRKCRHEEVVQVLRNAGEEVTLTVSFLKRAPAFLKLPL

T10: SYNJ2BP, P57105
T10 sequence (P57105 8-110, limits assumed, looked up): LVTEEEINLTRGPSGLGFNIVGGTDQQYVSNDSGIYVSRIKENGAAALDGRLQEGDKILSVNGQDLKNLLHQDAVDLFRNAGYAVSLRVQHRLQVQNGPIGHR

T11: TJP3_3, O95049
T11 sequence (O95049 375-456, limits assumed, looked up): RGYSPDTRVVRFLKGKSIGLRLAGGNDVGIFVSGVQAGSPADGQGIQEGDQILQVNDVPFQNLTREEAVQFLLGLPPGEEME

T12: TX1BP3, O14907
T12 sequence (O14907 10-122, limits assumed, looked up): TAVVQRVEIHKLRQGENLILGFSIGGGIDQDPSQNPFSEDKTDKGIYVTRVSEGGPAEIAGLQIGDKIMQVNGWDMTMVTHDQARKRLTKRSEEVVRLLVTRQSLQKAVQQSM


Experiments:
Test in all cases: holdup assay
Design in all cases: key: below the threshold = too weak to quantify, mostly under pKd 3.1 to 4
Details in all cases: plain residues with an end cap or a label only (N-terminal biotin on a linker: ado-ado)
[1] = biological target: T1, APBA2_1, Q99767
[2] = biological target: ARHGEF12, Q9NZN5-2
[3] = biological target: CASK, O14936
[4] = biological target: T2, DLG3_1, Q92796
[5] = biological target: T3, DLG3_2, Q92796
[6] = biological target: DLG5_1, Q8TDM6
[7] = biological target: FRMPD3, Q5JV73
[8] = biological target: GOPC, Q9HD26
[9] = biological target: GRASP, Q7Z6J2
[10] = biological target: GRID2IP_1, A4D2P6
[11] = biological target: IL16_4, Q14005
[12] = biological target: LIMK2, P53671
[13] = biological target: MAGI1_2, Q96QZ7
[14] = biological target: MAST2, Q6P0Q8
[15] = biological target: T4, MPDZ_10, O75970
[16] = biological target: T5, NHERF3_1, Q5T2W1
[17] = biological target: NHERF4_1, Q86UT5-2
[18] = biological target: PDZRN4_1, Q6ZMN7
[19] = biological target: T6, RHPN1, Q8TCX5
[20] = biological target: SCRIB_1, Q14160
[21] = biological target: T7, SHANK1, Q9Y566
[22] = biological target: T8, SNTA1, Q13424
[23] = biological target: T9, SNTG1, Q9NSN8
[24] = biological target: T10, SYNJ2BP, P57105
[25] = biological target: T11, TJP3_3, O95049
[26] = biological target: T12, TX1BP3, O14907

NHERF4_1, Q86UT5-2, sequence (Q86UT5 other isoform, or with tags, fused parts or gaps): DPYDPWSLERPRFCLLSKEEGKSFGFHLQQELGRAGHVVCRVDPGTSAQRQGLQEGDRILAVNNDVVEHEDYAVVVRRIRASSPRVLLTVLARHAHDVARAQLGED
GRASP, Q7Z6J2, sequence (Q7Z6J2 96-193): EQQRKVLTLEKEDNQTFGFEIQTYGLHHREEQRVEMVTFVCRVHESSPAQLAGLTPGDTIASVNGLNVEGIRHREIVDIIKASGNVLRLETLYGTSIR
GRID2IP_1, A4D2P6, sequence (A4D2P6 1-87): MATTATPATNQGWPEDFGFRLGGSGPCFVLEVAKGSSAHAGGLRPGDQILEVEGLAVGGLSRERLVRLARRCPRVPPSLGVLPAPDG
FRMPD3, Q5JV73, sequence (Q5JV73 12-100): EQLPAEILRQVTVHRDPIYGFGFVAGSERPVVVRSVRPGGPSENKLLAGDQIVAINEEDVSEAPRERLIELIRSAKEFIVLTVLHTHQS
MAGI1_2, Q96QZ7, sequence (Q96QZ7 456-580): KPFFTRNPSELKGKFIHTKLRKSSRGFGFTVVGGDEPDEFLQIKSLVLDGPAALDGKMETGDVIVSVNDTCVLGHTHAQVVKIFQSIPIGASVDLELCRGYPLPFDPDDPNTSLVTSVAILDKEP
LIMK2, P53671, sequence (P53671 143-248): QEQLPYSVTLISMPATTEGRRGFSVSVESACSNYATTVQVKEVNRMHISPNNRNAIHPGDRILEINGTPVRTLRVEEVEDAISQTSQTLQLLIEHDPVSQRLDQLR
MAST2, Q6P0Q8, sequence (Q6P0Q8 1099-1202): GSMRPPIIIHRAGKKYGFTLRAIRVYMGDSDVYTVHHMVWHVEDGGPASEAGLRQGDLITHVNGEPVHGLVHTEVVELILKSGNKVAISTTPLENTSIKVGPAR
DLG5_1, Q8TDM6, sequence (Q8TDM6 617-713): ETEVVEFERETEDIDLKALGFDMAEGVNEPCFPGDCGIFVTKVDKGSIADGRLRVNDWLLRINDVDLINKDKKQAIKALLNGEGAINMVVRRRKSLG
SCRIB_1, Q14160, sequence (Q14160 718-814): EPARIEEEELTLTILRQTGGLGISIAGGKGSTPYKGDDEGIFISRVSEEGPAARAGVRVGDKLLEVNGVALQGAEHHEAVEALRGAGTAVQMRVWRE
CASK, O14936, sequence (O14936 487-570): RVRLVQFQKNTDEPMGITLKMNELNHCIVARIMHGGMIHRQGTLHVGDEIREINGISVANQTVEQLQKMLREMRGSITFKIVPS
IL16_4, Q14005, sequence (Q14005 1229-1329): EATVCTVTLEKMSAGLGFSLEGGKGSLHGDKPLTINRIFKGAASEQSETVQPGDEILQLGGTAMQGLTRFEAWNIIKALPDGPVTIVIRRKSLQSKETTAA
PDZRN4_1, Q6ZMN7, sequence (Q6ZMN7 213-318): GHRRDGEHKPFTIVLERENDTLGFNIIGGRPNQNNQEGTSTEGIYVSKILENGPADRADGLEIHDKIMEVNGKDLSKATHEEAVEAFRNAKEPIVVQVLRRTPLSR
ARHGEF12, Q9NZN5-2, sequence (Q9NZN5 other isoform, or with tags, fused parts or gaps): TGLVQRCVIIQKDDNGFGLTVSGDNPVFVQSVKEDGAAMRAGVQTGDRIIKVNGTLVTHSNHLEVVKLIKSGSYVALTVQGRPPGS

Binder | pKd [1] | pKd [2] | pKd [3] | pKd [4] | pKd [5] | pKd [6] | pKd [7] | pKd [8] | pKd [9] | pKd [10] | pKd [11] | pKd [12] | pKd [13] | pKd [14] | pKd [15] | pKd [16] | pKd [17] | pKd [18] | pKd [19] | pKd [20] | other results
DHLGGGGESM [TNRC6A, Q8NDV7] | below the threshold | below the threshold | below the threshold | below the threshold | below the threshold | below the threshold | below the threshold | below the threshold | below the threshold | below the threshold | below the threshold | below the threshold | below the threshold | 3.62 | below the threshold | below the threshold | below the threshold | below the threshold | below the threshold | below the threshold | pKd [21]: below the threshold; pKd [22]: below the threshold; pKd [23]: below the threshold; pKd [24]: below the threshold; pKd [25]: below the threshold; pKd [26]: below the threshold
REKKFFCTIL [GNG4, P50150] | below the threshold | 5.87 | below the threshold | 3.65 | 4.13 | below the threshold | below the threshold | 5.18 | 5.1 | below the threshold | 3.49 | below the threshold | 4.92 | 5.62 | 4.3 | 5.43 | 4.56 | 4.19 | 4.48 | 5.33 | pKd [21]: 5.21; pKd [22]: 4.35; pKd [23]: below the threshold; pKd [24]: 4.27; pKd [25]: below the threshold; pKd [26]: 5.29
IPGKEFDTPL [PLCB1, Q9NQ66] | below the threshold | 3.61 | below the threshold | below the threshold | below the threshold | below the threshold | 3.55 | below the threshold | below the threshold | below the threshold | below the threshold | below the threshold | below the threshold | 4.95 | below the threshold | 5.12 | 3.56 | 4.3 | 3.65 | 3.93 | pKd [21]: 3.96; pKd [22]: 3.51; pKd [23]: below the threshold; pKd [24]: 4.33; pKd [25]: below the threshold; pKd [26]: 3.87
